± gives the standard deviation of the averaged measurements.
System: Saccharomyces cerevisiae
Assay: protein stability index of tFT-peptide fusion (C-terminal peptide) (PSI (0-1 scale)); higher = more stable (slower turnover)
Details: genetic background: wild type; temperature: 30 C
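Also: PSI is a weighted mean of sequencing reads over stability bins, variants kept only with over 10 reads, mCherry proximal and sfGFP distal, peptide attached via GGGS linker.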

Sequence	protein stability index
SWFVGFEGAVGG	0.7563 ± 0.0046
SWHTSRPPPPPF	0.656 ± 0.013
SWPDVCLTSPLS	0.731 ± 0.042
SWQSRISLRIST	0.648 ± 0.041
SWTWLFGFRRGL	0.746 ± 0.11
SWVIRSDLHYAL	0.731 ± 0.032
SYLDWFLVLDMF	0.6706 ± 0.0047
SYLFRLLFATLP	0.601 ± 0.033
SYLTQNGYAFRQ	0.644 ± 0.082
SYNYMSIVMYRL	0.587 ± 0.0071
SYRLILGSSPHP	0.619 ± 0.089
SYSPRRRLNTPR	0.699 ± 0.058
TACIVGLRLMRL	0.787 ± 0.063
TAFGLMRQPCMG	0.657 ± 0.052
TAGIIINCPIYL	0.596 ± 0.038
TAHPCVYRRGAV	0.675 ± 0.021
TALGLILSSFVY	0.595 ± 0.067
TALGVCPRVMQN	0.718 ± 0.039
TALKNLPSVSSV	0.712 ± 0.1
TALQNAAPRTAS	0.73 ± 0.11
TARGIRGICKSI	0.711 ± 0.021
TASVDQAVRWRG	0.708 ± 0.054
TAYRFYSYESSF	0.678 ± 0.082
TCDGSCRRGDLR	0.663 ± 0.066
TCLIFTCVLKFR	0.485 ± 0.098
TCPDSVMDRLDS	0.696 ± 0.12

Sequence	protein stability index
TCRGGNPFRACC	0.707 ± 0.054
TCVLYSSGFIYF	0.665 ± 0.065
TDGLGGGVVGRE	0.664 ± 0.011
TDIRMRRLNRDT	0.684 ± 0.029
TDISPRFVSVYL	0.656 ± 0.017
TEDGSYGESEQA	0.642 ± 0.023
TEREAKKKKSKI	0.704 ± 0.026
TFAALRVFSFLS	0.666 ± 0.052
TFALAPLPPLPS	0.68 ± 0.032
TFCPPSRYRPRA	0.709 ± 0.008
TFFPPLPPPSPS	0.702 ± 0.012
TFINVHRFCSAI	0.647 ± 0.024
TFISNYSCILSL	0.644 ± 0.013
TFPSADLYYSLL	0.74 ± 0.049
TFSIACIPSSHK	0.652 ± 0.025
TFTSTTLARPFS	0.831 ± 0.036
TGAGGPGPRNRK	0.774 ± 0.064
TGKHDIAQEQTK	0.679 ± 0.028
TGLLGLVGSQVP	0.67 ± 0.016
TGMYHSQPYPAA	0.677 ± 0.0071
TGRERLAEGDWR	0.692 ± 0.019
TGRWRWMRDLLS	0.63 ± 0.032
TGVFFPPQLPLP	0.69 ± 0.023
TGWASWVSVCLI	0.5587 ± 0.00094
TGWLRLLHAASG	0.656 ± 0.045
TGWWSPCRLDSS	0.722 ± 0.024

Sequence	protein stability index
THLPLPPPPPLL	0.655 ± 0.022
THPFLRTHPPVE	0.714 ± 0.097
THPPPGPHPSAA	0.717 ± 0.017
THSGRVRIVSFL	0.654 ± 0.12
THTDQKTNHRRQ	0.69 ± 0.05
TIAETIGCEKII	0.785 ± 0.099
TIETDIYAIARV	0.659 ± 0.041
TIGREENKIANI	0.651 ± 0.016
TILKLLSEELDK	0.613 ± 0.025
TISVNLYLPDLL	0.677 ± 0.057
TKDRIIMKKKKE	0.7214 ± 0.0031
TKHCRFCKSGFV	0.7133 ± 0.0063
TKIPVLLKNSAN	0.704 ± 0.062
TKIQFTITLIGK	0.578 ± 0.028
TKKKNKLRNKQE	0.664 ± 0.048
TKKKRKKKNTKK	0.685 ± 0.061
TKKNKTKKGQNK	0.7099 ± 0.006
TKRQKEKKKNKE	0.735 ± 0.042
TLCFRLGFLSYF	0.604 ± 0.091
TLDGGESSVVAV	0.685 ± 0.025
TLESRPALVFFS	0.681 ± 0.0088
TLGTSPPPAYLS	0.638 ± 0.013
TLPDSSSTSPNL	0.696 ± 0.063
TLPVPLPSVSHS	0.685 ± 0.0098
TLSHPANNKNNL	0.681 ± 0.047
TLSPAPPPPLPP	0.636 ± 0.093

Sequence	protein stability index
TLSSGREVVGRW	0.576 ± 0.012
TLTLVIPTSRDQ	0.717 ± 0.064
TLWENEKNNKHG	0.705 ± 0.024
TMLLPPPNLATI	0.71 ± 0.026
TMRSVSLRSVAS	0.675 ± 0.022
TMVAVTSILGGL	0.655 ± 0.084
TNIITRHNKKDK	0.657 ± 0.078
TNTEEKRKIRRS	0.697 ± 0.11
TPAYTETNGLST	0.73 ± 0.042
TPDLNLYSKVYG	0.695 ± 0.048
TPEQMKIKRNVE	0.69 ± 0.009
TPFVPLAPLPRS	0.728 ± 0.056
TPGMCDRQFGVD	0.685 ± 0.028
TPHQPPPPRPSP	0.7057 ± 0.0037
TPIAGGAKLFHV	0.646 ± 0.058
TPKTRPRSRAVK	0.748 ± 0.015
TPKWRRRLNQGL	0.719 ± 0.032
TPPLPLPSPPCP	0.7249 ± 0.0035
TPPLPPSLSPTH	0.708 ± 0.0085
TPPPHNRTKTTT	0.682 ± 0.072
TPPPNTPSPLTI	0.654 ± 0.033
TPPSHTVGIWAS	0.683 ± 0.039
TPRTRPFNPPPR	0.729 ± 0.023

Source: the supplement of paper PMC10724198
